Experimental data taken from FireProtDB (doi:10.1111/j.1432-1033.1994.tb18652.x).

B1: Guanyl-specific ribonuclease T1, P00651 (parent)
chain: MMYSKLLTLTTLLLPTALALPSLVERACDYTCGSNCYSSSDVSTAQAAGYQLHEDGETVGSNSYPHKYNNYEGFDFSVSSPYYEWPILSSGDVYSGGSPGADRVVFNENNQLAGVITHTGASGNNFVECT

Variants of: B1
Conditions: Aspergillus oryzae (strain ATCC 42149 / RIB 40), pH 6, Thermal, DSC, sodium acetate calcium acetate 20 mM 2 mM, Mops 50 mM, reversible: yes, structure 1RN1, whole UniProt chain shown; for ddG of mutation (higher = less stable) / heat capacity change of unfolding / unfolding free energy: 25 °C

| Variant | ddG of mutation (higher = less stable) [kcal/mol] | heat capacity change of unfolding [kcal/mol/K] | unfolding free energy [kcal/mol] | Tm [°C] | change of melting temperature, mutant - wild type (higher = more stable) [°C] | unfolding enthalpy (calorimetric) [kcal/mol] |
| --- | --- | --- | --- | --- | --- | --- |
| W85Y | 0.93 | 0.98 | 6.88 | 54.3 | -2.9 | 91.8 |
| Y68W | 0.14 | 0.98 | 7.67 | 56.6 | -0.6 | 96.1 |
| H66T | 0.26 | 0.98 |  | 56.7 | -0.5 | 100 |
| Y71W W85Y | 0.91 | 0.98 | 6.91 | 52.8 | -4.4 | 95.1 |
| Y50W W85Y | -0.29 | 0.98 | 8.1 | 56.6 | -0.6 | 101 |
| W85Y H118A | 1.53 | 0.98 | 6.26 | 53.2 | -4 | 87 |
| Y71W |  | 0.98 | 8.56 | 55.9 | -1.3 | 107 |
| H118A | 0.62 | 0.98 | 7.19 |  |  |  |
| H66T W85Y | 0.93 | 0.98 | 6.88 | 53.9 | -3.3 | 92.5 |
| Y50W | -1.24 | 0.98 | 9.03 | 58.8 | 1.6 | 106 |
| Y68W W85Y | 1.03 | 0.98 | 6.76 | 53.7 | -3.5 | 91.8 |
